# T1: Flag-PTHR1-YFP (parathyroid hormone receptor 1) expressed in transfected HEK293T cells (human, UniProt Q03431 27-593)
# T1 sequence (looked up): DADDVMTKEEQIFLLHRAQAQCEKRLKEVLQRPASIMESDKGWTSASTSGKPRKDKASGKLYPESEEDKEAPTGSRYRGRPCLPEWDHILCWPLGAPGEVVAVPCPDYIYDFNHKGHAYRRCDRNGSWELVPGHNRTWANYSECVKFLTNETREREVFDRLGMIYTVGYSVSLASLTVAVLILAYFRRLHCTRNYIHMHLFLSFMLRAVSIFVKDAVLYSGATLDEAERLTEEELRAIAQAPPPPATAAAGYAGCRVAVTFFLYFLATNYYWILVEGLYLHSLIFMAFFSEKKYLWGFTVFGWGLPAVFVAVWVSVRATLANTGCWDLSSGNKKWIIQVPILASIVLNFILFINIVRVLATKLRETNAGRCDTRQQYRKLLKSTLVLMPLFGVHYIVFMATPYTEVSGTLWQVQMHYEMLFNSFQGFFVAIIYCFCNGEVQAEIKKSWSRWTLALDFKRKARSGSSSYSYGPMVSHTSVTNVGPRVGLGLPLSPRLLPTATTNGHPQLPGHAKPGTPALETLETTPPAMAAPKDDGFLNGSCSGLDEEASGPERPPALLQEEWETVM
# T2: PTHR1 on CHO-K1/Ga15/PTHR1 cells (UniProt Q03431 27-593, limits assumed)
# T2 sequence (looked up): T1 sequence (looked up)
# Target: T1, Flag-PTHR1-YFP (parathyroid hormone …)
# Assay: cell-based or functional assay
Binder,"arrestin 1, plate 7: -log10EC50","arrestin 1, plate 7: Emax","arrestin 2, plate 8: -log10EC50","arrestin 2, plate 8: Emax","arrestin 1, plate 25: -log10EC50","arrestin 1, plate 25: Emax","arrestin 2, plate 26: -log10EC50","arrestin 2, plate 26: Emax","arrestin 1, plate 15: -log10EC50","arrestin 1, plate 15: Emax"
"GVAELQLMHDLAKIRAEYELREMLLRLLEEIF [R2-1, listing 1 of 2 here]",-15 -log10EC50,6.35,-9.21 -log10EC50,6.41,,,,,,
GIAVITLMVLRALLELQEIGRKITLELLKEYI [R2-51],,,,,-4.53 -log10EC50,12.5,-13.8 -log10EC50,6.47,,
"GIAVITLMDLRAYLRAEYELREMLLRLLEEIF [R2-13, listing 1 of 2 here]",,,,,,,,,-8.79 -log10EC50,6.38
GIAVITLMLLRAYLELLEELVKILHELLRRYH [R2-52],,,,,-9.83 -log10EC50,6.37,,6.48,,

# Same assay, conditions: not given
Binder,"arrestin 2, plate 16: -log10EC50","arrestin 2, plate 16: Emax"
"GIAVITLMDLRAYLRAEYELREMLLRLLEEIF [R2-13, listing 1 of 2 here]",-14 -log10EC50,6.59

# Target: T2, PTHR1 on CHO-K1/Ga15/PTHR1 cells
# Assay: cell-based or functional assay
Binder,cAMP accumulation (HTRF): -log10EC50,cAMP accumulation (HTRF): Emax
AVAEIQLMHQRAKWGLELELKEKLRKILEDVY [R2-26],-7.07 -log10EC50 (as headed),96.8%
AVAEIQLMHQRAKWLNELRLKEEMRKILEDVY [R2-33],-7.1 -log10EC50 (as headed),96.9%
AVAEIQLMHQRAKWEIQEIGIKITLDLLQTLK [R2-41],-10.3 -log10EC50 (as headed),98.2%
GVAMLQILHDKAKVRAEYELREMLLRLLEEIF [R2-11],-5.7 -log10EC50 (as headed),60.8%
GVAELQLMHFRALLRAEYELREMLLRLLEEIF [R2-7],-1.58 -log10EC50 (as headed),823%
GVVMLQFMHDVAKIRAEYELREMLLRLLEEIF [R2-9],110 -log10EC50 (as headed),665%
"GVAELQLMHDLAKIRAEYELREMLLRLLEEIF [R2-1, listing 2 of 2 here]",-7.02 -log10EC50 (as headed),102%
GVALLQIVHDFAKIRAEYELREMLLRLLEEIF [R2-5],,1580%
GVAMIQIMHDIAKIRAEYELREMLLRLLEEIF [R2-2],-6.73 -log10EC50 (as headed),101%
GVAEIQLMHDIPVIRAEYELREMLLRLLEEIF [R2-3],-4.93 -log10EC50 (as headed),260%
GVAEIQLMVDLDIIRAEYELREMLLRLLEEIF [R2-12],-3.86 -log10EC50 (as headed),154%
GVSMLQIMHDLAVIRAEYELREMLLRLLEEIF [R2-4],-5.87 -log10EC50 (as headed),10.6%
GVYAIQAMHDLAKIRAEYELREMLLRLLEEIF [R2-10],-4.49 -log10EC50 (as headed),1680%
PIPVKDIMDLRAYLRAEYELREMLLRLLEEIF [R2-19],-4.69 -log10EC50 (as headed),324%
LILVKKIIDLRAYLRAEYELREMLLRLLEEIF [R2-21],-4.67 -log10EC50 (as headed),47%
AVAEIQLMHQRAKWLEELKLKDDLRKILEDVY [R2-30],-7.1 -log10EC50 (as headed),97.2%
AVAEIQLMHQRAKWELLEELLKILLELLKEYI [R2-38],-6.91 -log10EC50 (as headed),99.1%

Binder,cAMP accumulation (HTRF): -log10EC50,cAMP accumulation (HTRF): Emax
SVMMIQVMHDLAKIRAEYELREMLLRLLEEIF [R2-8],-7.5 -log10EC50 (as headed),19.9%
GLAALTIGLLRAKLRAEYELREMLLRLLEEIF [R2-24],-10.4 -log10EC50 (as headed),81.4%
AVAEIQLMHQRAKWKLDLELAVSLRKILEDVY [R2-27],-7.91 -log10EC50 (as headed),93.3%
AVAEIQLMHQRAKWKQELELEEKNKKILEDVY [R2-32],-6.51 -log10EC50 (as headed),101%
AVAEIQLMHQRAKWKLELELKVKLLEILKDVY [R2-25],-7.89 -log10EC50 (as headed),96%
AVAEIQLMHQRAKWIQDARRRAFLHKLIAEIH [LA-PM-FL (R1-81)],-7.88 -log10EC50 (as headed),95%
AVAEIQLMHQRAKWGLDLELAVKLQEILKDVL [R2-28],-7.03 -log10EC50 (as headed),99.2%
AVATIQLMTDIAKIRAEYELREMLLRLLEEIF [R2-6],3.88 -log10EC50 (as headed),294%
AVAEIQLMHQRAKWKLELELKEKIRKLLEDLL [R2-29],-7.22 -log10EC50 (as headed),97.5%
SIIGEQLMLLRALLRAEYELREMLLRLLEEIF [R2-18],-2.23 -log10EC50 (as headed),36.6%
LILVEQLMDLRAYLRAEYELREMLLRLLEEIF [R2-16],-4.71 -log10EC50 (as headed),48.7%
GIAVLTILDLRAKLRAEYELREMLLRLLEEIF [R2-14],-11.3 -log10EC50 (as headed),117%
GIAVFTIMHLRIYLRAEYELREMLLRLLEEIF [R2-17],-3.35 -log10EC50 (as headed),39.7%
"GIAVITLMDLRAYLRAEYELREMLLRLLEEIF [R2-13, listing 2 of 2 here]",-5.31 -log10EC50 (as headed),116%
AVAEIQLMHQRAKWGLDLELRARLREILRDVY [R2-31],-14 -log10EC50 (as headed),104%
GIAVITIMIDYAKLRAEYELREMLLRLLEEIF [R2-22],-10.1 -log10EC50 (as headed),17.6%
